B1: His-INT/DSA/3H (His-INT with histidines substituted at the interaction surface) (domain or fragment)
chain: CIQHWQDAVPWTELLSLQTEDGFWKLTPELGLILNLNTNGLHSFLKQKGIQSLGVKGRECLLDLIATMLVLQFIRTRLEKEGIVFKSLMKMDDASISRNIPWAFEAIKQASEWVRRTEGQYPSICPRLELGNHWDHHTKQLLGLQPISTVSPLHRVLHYSQG
B2: Histidine-tagged vault-interacting domain of vault poly(ADP-ribose)-polymerase (His-INT) (domain or fragment, UniProt Q9UKK3 1563-1724, looked up)
chain: CIQHWQDAVPWTELLSLQTEDGFWKLTPELGLILNLNTNGLHSFLKQKGIQSLGVKGRECLLDLIATMLVLQFIRTRLEKEGIVFKSLMKMDDASISRNIPWAFEAIKQASEWVRRTEGQYPSICPRLELGNDWDSATKQLLGLQPISTVSPLHRVLHYSQG
notes: vault poly(ADP-ribose)-polymerase (VPARP), C-terminal INT domain, residues 1563-1724 of GenBank AF158255; Cloned NdeI/XhoI in pET-28a; Monomer and dimer in equilibrium; also called wild-type INT; full-length His-INT; source: E. coli BL21(DE3), purified (HisTrap HP, SEC; M fraction used); not shown: His6, N-terminal, kept

Columns and labels:
[1] = biological target: T1, Histidine-tagged INT-interacting MVP domains (His-iMVP), major vault protein domains 3 to 5; assay: SPR; Biacore 3000, His-iMVP immobilised on CM5 (1010 RU), His-INT/DSA/3H injected at 0.12, 0.25 or 0.5 μM, 25 °C, pH 6.0; apparent constants; settings: both partners purified
T1 construct: major vault protein (MVP), domains 3, 4 and 5 including the gap between domains 2 and 3, residues 102-276, PCR-amplified from the CP-MVP gene; numbers count on: PDB 2QZV; Cloned NdeI/BamHI in pET-28a; also called MVP domains 3 to 5; source: E. coli BL21(DE3), purified (HisTrap HP; SEC for SPR); not shown: His6, N-terminal, kept

[2] = biological target: T1, Histidine-tagged INT-interacting MVP …; assay: SPR; Biacore 3000, His-iMVP amine-coupled to CM5 (410, 1860 or 1240 RU), His-INT or variant injected, 25 °C, 50 mM PBS, 150 mM NaCl, pH 7.4; 1-to-1 Langmuir fit; apparent constants; settings: both partners purified
[3] = biological target: the molecule itself; assay: SEC; His-INT alone at 0.05, 0.01 and 0.005 mM on Superdex 75 10/300 GL; dimer (D) and monomer (M) peaks; dimer to monomers

| Binder | Kd [1] [nM] | koff [1] [s⁻¹] | kon [1] [M⁻¹ s⁻¹] | Kd [2] [nM] | koff [2] [s⁻¹] | kon [2] [M⁻¹ s⁻¹] | stoichiometry N [3] |
| --- | --- | --- | --- | --- | --- | --- | --- |
| B1 | 24 | 0.000258 | 10800 | 90 | 0.00134 | 14900 | – |
| B2 | – | – | – | – | – | – | 2 |

From article PMC5665922, “Modulation of the Vault Protein-Protein Interaction for Tuning of Molecular Release” (Scientific Reports, 2017)
